Laboratory results: patent publication US20220409696A1, “Heparin-Associated Polypeptides and Uses Thereof” (Juvena Therapeutics, Inc., priority 2021, published 2022)

Key:
[1] = Backbone cleavage on expression from CHO cells (reducing SDS-PAGE, Western blot)
Method: The amino acid backbone of IGF2 is cleaved when expressed from Chinese Hamster Ovary (CHO) cells (FIG. 13A) as visualized on a reducing SDS-PAGE and Western blot (FIG. 13B). The CHO cells were grown in a 37° C. incubator with a humidified atmosphere of 8% CO2 on an orbital shaker platform with a shaking speed 125 rpm to reach 4E6 cells/mL, followed by transferring the calculated volume of cells to fresh, pre-warmed ExpiCHO™ Expression Medium in a shake flask. Incubated flasks in a 37° C. incubator with a humidified atmosphere of 8% CO2 shook on an orbital shaker platform until cultures reached a density of 4×106-6×10^6 viable cells/mL. After mixing each plasmid with 100 ul SFM in a microtube; ExpiFectamine (8 ul×10.5=84 ul) with OptiPro medium (92 ul×10.5=966 ul) in a microtube; adding 100 ul into the plasmid tube and mix by pipetting; After 5 min, add 200 ul into each well and swirl to mix. mix enhancer (15×10.2=153 ul) with feed (600×10.2=6.12 ml), add 615 ul into each well. Culture supernatant collected at intervals was spun down at low speed and high speed, then frozen at −80 deg. Aliquots were analyzed for protein concentration by nanodrop, and then an equivalent amount loaded onto 4-12% SDS-PAGE gels for molecular weight distribution analysis. […]

[2] = Pharmacokinetics after intravenous injection in mice; type: in vivo; details: mice 10-12 weeks old, dose 10 mg/kg (HSA-IGF2R61A), 600 ug/kg (IGF2), Non-Compartment Analysis
Method: Murine pharmacokinetics (PK) represents the absorption, distribution, metabolism, and elimination of drugs from the body. The pharmacokinetic profile of the therapeutic polypeptides were determined in mice (10-12 weeks old). Mice were fed ad libitum and housed under controlled conditions of lighting (12-hour light/12-hour dark) and temperature (22-24° C.). Mice were allowed to acclimate for 3 days prior to the initiation of the experiment. Intravenous (IV) injection in 10-12 weeks old mice. Engineered mitogenic polypeptides concentrations in the samples were measured by ELISA. Various pharmacokinetics will be calculated as well as the absorption/elimination dynamics following different routes of administration.

DM1 human myoblast cells [3] = assay: Fusion (% eMyHC area) of DM1 human myoblast; type: cell-based; details: 96 h for fusion
Method: (§1) FIG. 7A Bar graph of % EdU+ human myoblast (person) and FIG. 7B % area MyHC in response to IGF2. Myoblast were cultured 72 h for proliferation and 96 h for fusion in the presence of indicated factor. Mean∓S.D. Mean∓SD. Significant p-values (EdU: Vehicle˜IGF2: 6.8E-3, % eMyHC Area: Vehicle˜IGF2: 1.9E-4) (*p<0.05 by Students Two-Tailed T-test, n=3−6).
(§2) IGF2 was tested individually for its ability to promote proliferation and/or fusion of human muscle progenitor cells from an individual with myotonic dystrophy type 1 (hMD)—a muscular dystrophy caused by mutations in the DMPK1 gene. […] After 72 or 96 hours, cells were pulsed for 2-5 hours with EdU (30 uM), ethanol fixed, stained with Hoescht 3342, immunostained for proliferation—as measured by the percent of cells staining positive for EdU (% EdU)-, and immunostained for differentiation—as measured by the increase in cellular area staining positive for embryonic myosin heavy chain (% eMyHC) relative to the negative controls, which received media and vehicle only. Wells were imaged on a Keyence BZ-100 at 4×, the images quantified in Cell Profiler, and the statistics were computed in R. Additionally, RNA was extracted from myoblast and select transcript abundances quantified by qPCR. […]

DM1 human myoblast cells [4] = assay: Proliferation (EdU) of DM1 human myoblast; type: cell-based; details: 72 h for proliferation
Method: as §1, §2

With “IGF2: Human IGF2 polypeptide, amino acids 25 to 91 of SEQ ID NO. 32 (i.e. SEQ ID NO. 29)” as the substance, how does the “cleavage of the amino acid backbone when expressed from CHO cells” value [1] read?
Its value is “cleaved”.

What about the Half-life [2] of the same substance?
Its Half-life is 2.85 h.

What about the “% eMyHC area” value (DM1 human myoblast cells [3]) of the same substance?
The value was 5.49%.

What about the “EdU FC” value (DM1 human myoblast cells [4]) of the same substance?
The value was 2.18.
